Numbering of substitutions follows the chain as printed. Entries after “also recorded” stand apart in the source; their conditions may differ.
B1: NMC-204: mouse monoclonal antibody of the IgG3 isotype that binds to NMC-P2 (SEQ ID NO:2); VH SEQ ID NO:38, VL SEQ ID NO:39 (antibody, V domains shown)
VH: EVQLQESGSVLVRPGASVKLSCKASGDTLSGSWMHWAMQRPGQGLEWIGEIHLNRGTTNYNEKFKGKATVTVDTSSSTAYVDLSSLTSEDSAVYYCARSPGFAYWGQGTLVTVSA
VL: GIVMTQAAPSVPVTPGESVSISCRSSKSLLHSNGNSYLYWFLQRPGQSPQLLIYRMSNLASGVPDRFSGSGSGTAFTLRITRVEAEDVGVYYCMQHLEYPFTFGSGTKLEIK
modifications: mAb NMC-204 Heavy Chain Variable Region; mAb NMC-204 Light Chain Variable Region
B2: NMC-103: mouse monoclonal antibody of the IgG1 isotype that binds to NMC-P1 (SEQ ID NO:1); VH SEQ ID NO:36, VL SEQ ID NO:37 (antibody, V domains shown)
VH: EVQLQESGGGLVQPGGSLRLSCTTSGFTFTHYYMSWVRQPPGKALEWLGFIRNKAKGYTAEYSASVKGRFTISRDNSQSILYLQMNTLRPEDSATYYCARDIGDNWGQGTLVTVSS
VL: DIVMTQAAFSNPVTLGTSASISCRSSKNLLHSNGITYLYWYLQRPGQSPQLLISRVSNLASGVPNRFSGSESGTDFTLRISRVEAEDVGVYFCAQLLELPYTFGGGTKLEIK
modifications: mAb NMC-103 Heavy Chain Variable Region; mAb NMC-103 Light Chain Variable Region
B3: NMC-H103 (VH4/VK3): humanized NMC-103 variant, human IgG1, VH4 (SEQ ID NO:299) and VK3 (SEQ ID NO:297) (antibody, V domains shown)
VH: B2 VH with Q5V, G16P, P40A, A44G, Q78K, I80T, T87S, P90A, S93T, T95V
VL: B2 VL with A7T, A8P, F9L, N11S, T17Q, S18P, R44K, N65D, R79K, L109V
modifications: human IgG1 constant regions lacking entries; mAb NMC-H103.VH4Heavy Chain Variable Region; mAb NMC-H103.VK3Light Chain Variable Region

Assays:
Format in all cases: cell-based
[1] = tested on: mouse Lewis Lung LL/2 cancer cells; experiment: Flow cytometry (EDTA vs trypsin, intact vs permeabilized); conditions: for % cells stained: 5 μg/ml antibody; for staining of trypsin-treated permeabilized cells: reduction in binding after trypsin vs reactivity with intracellular target
Method: Flow Cytometry Methodology: Cells that had been allowed to grow to about 80% confluency in 25 cm^2 tissue culture flasks were released with either EDTA (10 mmols; pH7.2; 5 min, 37° C.) or Trypsin (Gibco TrypLE Express), fixed with freshly made 4% buffered (pH 7.4) paraformaldehyde for 1 h at room temperature, washed several times with a large volume of ice-cold PBS, and blocked for 30 minutes at room temperature with 5% human serum albumin in PBS (intact, non-permeabilized cells). After establishing viability, the cell number was adjusted to 10^6 cells/ml and kept in ice-cold PBS until staining. Another set of the same cells was released with either EDTA or Trypsin and fixed with 4% buffered paraformaldehyde as above, then washed and blocked with 5% human serum albumin in PBS, and was treated separately with Triton X-100 (0.1% in PBS) (International Biotechnologies Inc. 07100) for 5 minutes at room temperature for membrane permeabilization. After washing off the Triton X-100 solution with PBS the cells were adjusted to 10^6 cells/ml and stored in ice-cold PBS. Cells (10^6/ml) from each preparation were then incubated either with 5 μg/ml of mAb to Na+/K+ ATPase α-1 (Abcam, Cat. No. ab2826), 5 μg/ml of mAb NMC-103, or 5 μg/ml of mAb NMC-204 for 90 min at room temperature. Following primary antibody incubation, cells were washed 3 times with ice-cold PBS followed by incubation with rabbit anti-mouse PE-Cy5 labeled secondary antibody (PE-Cy5-RaM IgG (H&L); Invitrogen, Cat. No. M35018) at room temperature. Sixty minutes later the cells were washed 3 times with PBS and subjected to flow cytometry analysis (BD Canto Flow Cytometry). Controls to establish background fluorescence included the analysis of samples of unstained cells as well as cells that had been processed with secondary antibody under the same conditions as used in the experimental samples.
Cells that had been allowed to grow to about 80% confluency in 75 cm^2 tissue culture flasks were released with either EDTA (10 mmols; pH 7.2; 5 min, 37° C.) or Trypsin (Gibco TrypLE Express), washed several times with ice-cold PBS, and blocked for 20 minutes on ice with 5% human serum albumin in PBS (intact, non-permeabilized cells). After establishing viability, the cell number was adjusted to 10^6 cells/ml and kept in ice-cold PBS until staining. Cells were then incubated with primary antibodies NMC-H103 (VH4/VK3) or NMC-C303 (1 μg/ml) for 30 minutes on ice. Following primary antibody incubation, cells were washed 3 times with ice-cold PBS, followed by incubation with goat anti-human PE labeled secondary antibody (Life technologies H10104) on ice for 20 minutes. Cells were then washed 3 times with PBS and incubated with 7AAD (5 μl/[…] of buffer) before flow cytometry analysis using Fortessa 5.

[2] = tested on: human melanoma A2058 cells; experiment: Cell-ELISA on intact cells; conditions: for relative binding (reactivity) to intact cells, cell-ELISA: A2058, mAb 1 μg/mL, fixed, non-permeabilized cells
Method: (§1) Cell-ELISA Methodology: 8,000-10,000 cells/well of a 96-well microplate were grown overnight. The next day, unbound cells were washed off with sterile 1×PBS. The cells in each well were fixed with freshly prepared 4% buffered paraformaldehyde (pH 7.2) for 1 hour followed by 3 washes with 1×PBS. The wells were then blocked with 5% BSA in PBS (100 μl/well) for 2 hours at room temperature. Microplate wells were then washed 5 times with 300 μl of ice cold 1×PBS. MAbs NMC-103, NMC-204 or NMC-303 at 1 μg/mL in 1% BSA/PBS were then incubated with various cancer or normal untransformed cells for 2 hours at room temperature. Wells were then washed with 300 μl of ice-cold 1×PBS for 5 times and corresponding secondary antibody HRP-GaM F(ab′)2 diluted 1:2500 or 1:5000 in PBS with 1% BSA were added at 100 μl/well for 1 hour at room temperature followed by washing 5 times with 300 μl of ice-cold 1×PBS. TMB Substrate Solution (1-Step™ Ultra TMB-ELISA, ThermoFisher, Cat. No. 34028) was then added at 50 μL to each microplate well and incubated at room temperature for 30 minutes. The reaction was stopped by addition of 50 μL of stop solution (ThermoFisher, Cat. No. SS04) to each well and absorbance of each well was measured at OD450 nm. The absorbance value of each experimental well was corrected for the absorbance value obtained from wells treated with isotype-identical mAbs included in each experiment. The results are thus expressed as “relative binding”.
(§2) In a 96-well microplate, 15,000 cells/well were cultured overnight. The next day, unbound cells were washed off with sterile 1×PBS. The cells in each well were fixed with freshly prepared 4% buffered paraformaldehyde (pH 7.2) for 1 hour, followed by 3 washes with 1×PBS. The wells were then blocked with 5% BSA in PBS (100 μl/well) for 2 hours at room temperature. Microplate wells were then washed 5 times with 300 μl of ice cold 1×PBS. Monoclonal antibodies NMC-H103 (VH4/VK3) or NMC-C303 at 5 μg/mL in 1% BSA/PBS were then incubated with various cancer cells for 2 hours at room temperature. Wells were then washed with 300 μl of ice-cold 1×PBS for 5 times and corresponding secondary antibody HRP-GaH F(ab′)2 diluted 1:2000 or 1:4000 in PBS with 1% BSA were added at 100 μl/well for 1 hour at room temperature followed by washing 5 times with 300 μl of ice-cold 1×PBS. TMB Substrate Solution (1-Step™ Ultra TMB-ELISA, ThermoFisher, Cat. No. 34028) was then added at 50 μL to each microplate well and incubated at room temperature for 30 minutes. The reaction was stopped by addition of 50 μL of stop solution (ThermoFisher, Cat. No. SS04) to each well and absorbance of each well was measured at OD450 nm. The absorbance value of each experimental well was corrected for the absorbance value obtained from wells treated with isotype-identical mAbs included in each experiment.

[3] = tested on: primary patient-derived human ovarian cancer OVCA4 cells; experiment: Cell-ELISA on intact cells; conditions: for relative binding (reactivity) to intact cells, cell-ELISA: OVCA4, mAb 1 μg/mL, fixed, non-permeabilized cells
Method: as §1, §2

[4] = tested on: mouse colon cancer MC-38 cells; experiment: Cell-ELISA on intact cells; conditions: for relative binding (reactivity) to intact cells, cell-ELISA: MC-38, mAb 1 μg/mL, fixed, non-permeabilized cells
Method: as §1, §2

[5] = tested on: human pancreatic cancer MIA PaCa-2 cells; experiment: Cell-ELISA on intact cells; conditions: for binding to intact, EDTA-released MiaPaCa-2 cells, cell-ELISA: EDTA 10 mmols, pH 7.2, 5 min, 37° C.; for relative binding (reactivity) to intact cells, cell-ELISA: MIA PaCa-2, mAb 1 μg/mL, fixed, non-permeabilized cells; for binding to intact MIA PaCa-2 cells when competed with NMC-P2 peptide / binding to intact MIA PaCa-2 cells when competed with soluble NMC-P1 peptide: cell-ELISA peptide competition
Method: as §1, §2

[6] = tested on: human ovarian cancer OVCAR-3 cells; experiment: Cell-ELISA on intact cells; conditions: for relative binding (reactivity) to intact cells, cell-ELISA: OVCAR-3 (resistant to adriamycin, melphalan, cisplatin), mAb 1 μg/mL, fixed, non-permeabilized cells
Method: as §1, §2

[7] = tested on: human breast cancer MCF-7 cells; experiment: Cell-ELISA on intact cells; conditions: for relative binding (reactivity) to intact cells, cell-ELISA: MCF-7, mAb 1 μg/mL, fixed, non-permeabilized cells
Method: as §1, §2

[8] = EDTA-treated permeabilized cells (Triton X-100)

Molecule | % cells stained ([1]; EDTA-treated intact cells) | % cells stained [1, 8] | staining of trypsin-treated permeabilized cells [1] | % cells stained ([1]; trypsin-treated intact cells) | relative binding (reactivity) to intact cells, cell-ELISA [2] | relative binding (reactivity) to intact cells, cell-ELISA [3] | relative binding (reactivity) to intact cells, cell-ELISA [4] | binding to intact, EDTA-released MiaPaCa-2 cells, cell-ELISA [5] | relative binding (reactivity) to intact cells, cell-ELISA [5] | binding to intact MIA PaCa-2 cells when competed with NMC-P2 peptide [5] | binding to intact MIA PaCa-2 cells when competed with soluble NMC-P1 peptide [5] | relative binding (reactivity) to intact cells, cell-ELISA [6] | relative binding (reactivity) to intact cells, cell-ELISA [7] | also measured
B1 | 51.2% | 52.85% | compensated | 27% | reactivity | reactivity | reactivity | bound | reactivity; also recorded: reacted | competed | not with NMC-P1 | reactivity | reactivity | 
B2 | 70.4% | 75.8% | compensated | 36.8% | reactivity | reactivity | reactivity | bound | reactivity | did not have any effect | completely abolished | reactivity | reactivity | binding to intact MIA PaCa-2 cells after pre-incubation with full-length recombinant HDM2 ([5]; cell-ELISA competition): reduced
B3 |  |  |  |  |  |  |  |  |  |  |  |  |  | binding to live cells briefly treated with trypsin, flow cytometry ([1]; 7AAD negative): reduced; binding to live (7AAD negative) cells, flow cytometry ([1]; antibody 1 μg/ml): binding; binding to intact, un-permeabilized cells, cell-based ELISA ([2]; mAb 5 μg/mL): binding; binding to intact, un-permeabilized cells, cell-based ELISA ([3]; OVCA-4 ovarian cancer cells, mAb 5 μg/mL): binding; binding to intact, un-permeabilized cells, cell-based ELISA ([4]; MC-38 colon cancer cells, mAb 5 μg/mL): binding; binding to intact, un-permeabilized cells, cell-based ELISA ([5]; MIAPaCa-2 pancreatic cancer cells, mAb 5 μg/mL): binding; binding to intact, un-permeabilized cells, cell-based ELISA ([6]; OVCAR-3 ovarian cancer cells, mAb 5 μg/mL): binding; binding to intact, un-permeabilized cells, cell-based ELISA ([7]; MCF-7 breast cancer cells, mAb 5 μg/mL): binding
